Target: Channelrhodopsin-2 (D156C) (Chlamydomonas reinhardtii) (UniProt Q8RUT8)
Assay: SDS-PAGE; Coomassie-stained SDS-PAGE of SEC-purified fractions (elution volumes 11 to 15 mL); dimer partially SDS-resistant

stoichiometry N: 2
Substance: Channelrhodopsin-2 (D156C) (from UniProt Q8RUT8 1-737) (natural protein)
